Data as given in PMC6499816 (2019).

Assays:
Assay in all cases: BLI (biotin peptide on tip)
[1] = molecular target: T1, P62 (Homo sapiens (Human), UniProt Q13501)
T1 chain: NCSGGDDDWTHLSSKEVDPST

[2] = molecular target: T2, FYCO1 (Homo sapiens (Human), UniProt Q9BQS8)
T2 chain: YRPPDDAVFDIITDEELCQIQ

[3] = molecular target: T3, ATG13 (Homo sapiens (Human), UniProt O75143)
T3 chain: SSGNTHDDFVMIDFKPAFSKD

Kd [1]: 2700 nM
Kd [2]: 3000 nM
Kd [3]: 480 nM
B1: LC3C (protein)
chain: MPPPQKIPSVRPFKQRKSLAIRQEEVAGIRAKFPNKIPVVVERYPRETFLPPLDKTKFLVPQELTMTQFLSIIRSRMVLRATEAFYLLVNNKSLVSMSATMAEIYRDYKDEDGFVYMTYASQETFG
